Reference: IntAct's records for PubMed 19151722

B1: Protein transport protein DSL1 (Saccharomyces cerevisiae), P53847 (parent)
chain: MESLFPNKGEIIRELLKDPLILKNDSKRSNGSELELDSSDLLQREAILANELNILDNLKTFLNLIKEVKTNLNILELENCYYSLQSLRKKMRNNAAYLKQSFNFQQSISTYVDTLHLELVSTLYKILTNGFWKITENSIQFTPTVEWGKDKVHIEYDTFMDFVAQQYFPKGSLDNQAWFILDMTSADSQEQVRAKLNTIMKEYMNLSRIVSMIKNSIFISGKEISYENEKNILVFSKSSSHGQHCVSTVLTSFEAVCDFMLDGLAFRDRKTLSYELGPLFNTEFTKFVKNNASIILESLDSPLKNLVSVINNKLTRLVAKSEVTNWTHSGKEIQDLLMNKQLYYNLLLDKVLESHISEIRSIFEDPKKSWQNLEVVELTTSNTNTMSEKIGKNDSDVQNEKELHNAVSKDDDWNWEVEDDDADAWGDEIDVNIDDEEEKTNQEKEKEPEEEENAWDEAWAIDENIDDASLENGKEHLKAHDVGSLDKDHIEVTQLPKLFLAISQNFKSSFADSHVDEQYFAYKYNLLQTSYMAMCTANFSHNWCQLYVDMRYLIERDEKLYRIKELTRNLLETKLNMKYRIVCQLIRHQLTEFRENERNPSWDATIEKLLPYILKEIVRPLQKIRGEEGSRYLLSFLNFLYNDCVTKEILKWQIISEVNSENLGELVSLLVNNTDIQLLAKEPSYKKMREKFATMGKFLPLHLKEIMEMFYNGDFYLFATDELIQWIELLFADTPLRRNAIDDIYEIRGTALDD
partner: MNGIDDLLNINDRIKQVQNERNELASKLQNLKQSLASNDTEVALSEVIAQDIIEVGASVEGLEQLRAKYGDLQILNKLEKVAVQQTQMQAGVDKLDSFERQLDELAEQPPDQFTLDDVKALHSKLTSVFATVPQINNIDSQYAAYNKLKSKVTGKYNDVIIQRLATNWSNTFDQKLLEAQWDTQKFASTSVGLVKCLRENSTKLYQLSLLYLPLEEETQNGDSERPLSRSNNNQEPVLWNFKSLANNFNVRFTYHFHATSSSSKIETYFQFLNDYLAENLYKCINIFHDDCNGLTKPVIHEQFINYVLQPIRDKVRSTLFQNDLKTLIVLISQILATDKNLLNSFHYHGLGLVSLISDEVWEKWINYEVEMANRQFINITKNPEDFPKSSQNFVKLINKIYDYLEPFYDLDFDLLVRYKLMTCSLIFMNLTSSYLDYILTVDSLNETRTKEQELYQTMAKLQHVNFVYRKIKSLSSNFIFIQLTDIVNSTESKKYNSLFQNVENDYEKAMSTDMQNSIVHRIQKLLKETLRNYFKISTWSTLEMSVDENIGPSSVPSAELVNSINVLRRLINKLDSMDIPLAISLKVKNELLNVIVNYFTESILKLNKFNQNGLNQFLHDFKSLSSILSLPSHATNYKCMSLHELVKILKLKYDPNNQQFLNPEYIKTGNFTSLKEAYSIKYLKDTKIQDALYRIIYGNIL
B2: Protein transport protein TIP20 (Saccharomyces cerevisiae), P33891 (parent)
chain: B1 partner
partner: B1 chain

Variants of: B1
Conditions: with tip20_yeast TIP20, P33891

Variant	effect of a mutation on the interaction
L58D	disrupting interaction
L55E	disrupting interaction
L48E	disrupting interaction

Variants of: B2
Conditions: with dsl1_yeast DSL1, P53847

Variant	effect of a mutation on the interaction
V17E	disrupting interaction
I10D;L28E	disrupting interaction
